Patent publication US20230235069A1 (KYMAB, published 2023)

Target: T1, human OX40 ligand (human, UniProt P23510 51-183, limits assumed)
T1 construct: also called hOX40L; the target
T1 sequence (looked up): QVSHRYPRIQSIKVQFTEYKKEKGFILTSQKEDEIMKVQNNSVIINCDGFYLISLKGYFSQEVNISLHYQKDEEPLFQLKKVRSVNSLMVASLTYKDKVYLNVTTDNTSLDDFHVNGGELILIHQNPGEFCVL
Assay: PK ELISA of KY1005 in human serum on coated human OX40 ligand

B1: KY1005 (antibody, human IgG4 S228P, kappa, V domains shown)
VH: EVQLVESGGGLVQPGGSLRLSCAASGFTFSNYAMNWVRQAPGKGLEWVSTISGSGGATRYADSVKGRFTISRDNSRNTVYLQMNSLRVEDTAVFYCTKDRLIMATVRGPYYYGMDVWGQGTTVTVSS
VL: DIQMTQSPSSLSASVGDRVTITCRASQSISSYLNWYQQKPGKAPNLLIYAASSLQSGVPSRFSGSGSETDFTLTISSLQPEDFATYYCQQSHSVSFTFGPGTKVDIKR
notes: also called 2D10; 02D10
  binding result: binds
